Laboratory results: patent publication US6008193A, “Methods of using human von Willebrand factor GPIb binding domain polypeptides” (Bio-Technology General Corp., priority 1995, dated 1999)
“And” between values parts separate entries of the source, which are not always exact repeats. Equal values may be shown once.

Assays:
[1] = tested on: rat platelet rich plasma (PRP); test: vWF-dependent platelet aggregation assay in platelet rich plasma (PRP); format: cell-based; conditions: ristocetin up to 5.0 mg/ml, no additional agent
Experimental: This is a standardized von Willebrand Factor (vWF)-dependent aggregation assay using human or rat platelet rich plasma (PRP). The addition of various concentrations of unfractionated Bothrops jararaca venom (BJV), which includes botrocetin and an additional thrombin-like component, or ristocetin results in an aggregatory response in the absence of any additional agent. Using ristocetin (1.5 mg/ml) as the agonist 43 μg/ml VCL abolished the aggregation of human PRP.

[2] = target: platelet glycoprotein Ib (GPIb) (human) (UniProt P07359)
[3] = target: platelet glycoprotein Ib (GPIb) (human) (UniProt P07359); remark: listed apart in the source
[4] = target: platelet glycoprotein Ib (GPIb) (human) (UniProt P07359); remark: listed apart in the source
[5] = target: platelet glycoprotein Ib (GPIb) (human) (UniProt P07359); test: platelet adhesion to immobilized VCL on a glass cover slip in a laminar flow cell
[6] = target: platelet glycoprotein Ib (GPIb) (human) (UniProt P07359); remark: listed apart in the source
[7] = target: platelet glycoprotein Ib (GPIb) (human) (UniProt P07359); remark: listed apart in the source
[8] = target: platelet glycoprotein Ib (GPIb) (human) (UniProt P07359); remark: listed apart in the source
[9] = target: platelet glycoprotein Ib (GPIb) (human) (UniProt P07359); remark: listed apart in the source
[10] = target: platelet glycoprotein Ib (GPIb) (human) (UniProt P07359); remark: listed apart in the source
[11] = target: platelet glycoprotein Ib (GPIb) (human) (UniProt P07359); test: platelet adhesion to immobilized VCL against immobilized albumin in a laminar flow cell
[12] = target: platelet glycoprotein Ib (GPIb) (human) (UniProt P07359); remark: listed apart in the source
[13] = target: platelet glycoprotein Ib (GPIb) (human) (UniProt P07359); remark: listed apart in the source
[14] = target: platelet glycoprotein Ib (GPIb) (human) (UniProt P07359); remark: listed apart in the source

platelet adhesion to endothelial cell extracellular matrix (ECM) in a laminar flow cell [2] [% inhibition] | platelet adhesion to immobilized collagen (type I) in a laminar flow cell [3] [% inhibition] | platelet adhesion to immobilized fibrinogen in a laminar flow cell [4] [% inhibition] | percent coverage of the test surface by platelets [5] [% coverage] | platelet adhesion to immobilized fibronectin in a laminar flow cell [7] [% inhibition] | IC50, platelet adhesion to ECM at a shear rate of 1300 s^-1 [8] [nM] | Ristocetin induced platelet aggregation (RIPA) [9] [% inhibition] | platelet adhesion to immobilized vWF in a laminar flow cell [10] [% inhibition] | fold of adhesion to albumin [11] [fold] | % Inhibition of Platelet Aggregation (asialo-vWF induced, in PRP) [12] [%] | Dissolution of preformed aggregates (made by RIPA) [13] [µM VCL] | IC50, Asialo vWF induced platelet aggregation [13] [µM VCL] | IC50, Platelet deposition under conditions of flow (everted denuded human umbilical artery, whole human blood) [13] [µM VCL] | IC50, Ristocetin induced platelet aggregation [13] | IC50, Thrombin induced platelet aggregation [13] [µM VCL] | % Inhibition of Platelet Aggregation (ristocetin induced, washed human platelets with intact vWF) [14] [%] | Substance | Aggregation of rat PRP induced by ristocetin [1] | platelet deposition on damaged porcine aorta perfused ex vivo with normal human blood [6] [% reduction]
 |  |  |  |  |  |  |  |  |  |  |  |  |  |  |  | ristocetin | did not cause measurable aggregation | 
70 | 50 | 75 | < 5 | 80 | 800 | 100 | 25 | 10 | 76 | 0.5 | 0.15 | 1 | 0.2 µM VCL and 0.3 µM VCL | 0.3 | 100 | VCL, a vWF GPIb binding domain polypeptide (methionine plus amino acids 504-728 of mature human vWF) (ligand) |  | 60
